Results: paper PMC11399405

Experiments:
SPD_1558 = SPD_1558 (Streptococcus pneumoniae D39, UniProt A0A0H2ZMV6 1-103); assay: EMSA
SPD_1777 = SPD_1777 (Streptococcus pneumoniae D39, UniProt A0A0H2ZNW3 1-317); assay: EMSA

B1: IGR1729/1728 and flanking RNA (55 nt) (ssRNA)
RNA: GCUAGUGCAGAUGCUCCAGUUAAAAAAGAGUAGGAGGUAGAGGAAAUGUCUCAAU
binding result (SPD_1558): binds | binding result (SPD_1777): binds
